Experimental data published in paper PMC11904497.

How the values were obtained:
[1] = target: S2SbHbN, Shewanella benthica strain KT99 TrHbN-2 (UniProt ID: A9DF82) with Cys51Ser and Cys71Ser replacements (Shewanella benthica strain KT99); assay: HP-SAXS (batch SAXS in the high-pressure cell); undiluted sample 10 mg/ml in the high-pressure cell, ambient pressure (0.101 MPa) point of the pressure series; volume-fraction analysis, radius of gyration and molecular mass
[2] = target: Y34F S2SbHbN (Shewanella benthica strain KT99); assay: as above

Row | Substance | stoichiometry N [1] | stoichiometry N [2]
1 | S2SbHbN, Shewanella benthica strain KT99 TrHbN-2 (UniProt ID: A9DF82) with Cys51Ser and Cys71Ser replacements (natural protein) | 4 | 
2 | Y34F S2SbHbN (natural protein) |  | 4
